Here are results for one substance from US20140179898A1.

The target in this experiment is IgG1-type humanized monoclonal antibody. The experiment can be described thus: stepwise pH affinity chromatography (bound at pH 7.0, elution buffer pH 4.0), bought column.

Substance “HiTrap rProtein A FF (GE Healthcare) (from UniProt P38507 37-327)” came in with a pH of the antibody's elution peak of 3.7 pH.
